From paper PMC4867895

Substrate: O=C(O)CO
Experiment: purified protein
Settings: co-substrate O2; recombinant His-tagged enzyme

B1: CmGOX (Cyanidioschyzon merolae strain 10D) (protein)
chain: MVEKPAVNPATQPLNLAEYHLFAKARLPAMVYGYYASGADDEQTLRDNEEAFRRLRFRPRVLIDVSRVDITKQVMGIDLSFPLMVAPTAMQRMAHPEGELATARAVARIGTVMGLSSWATTSLEDVAAHVPGLPKFFQLYVYKDRAITERLVRRAERAGFRAIALTVDTPQLGRREADIRNQFQLPPHLSLANFADMKDFAQVKGGAGASGLASYVASLIDASLNWNDIAWLKSITRLPILLKGVVTAEDAQRALQYGADGIWISNHGARQLDGVTATIDCLEEVAQSVRGRIPVFIDSGVRRGTDVVKALALGADAVLIGRPIVWGLAVDGEEGVYRLLSLLKDEFKLAMQLCGCQKVSDIRRDLVVRDAFAPYDVRQMLSVKMQSKL
**Q.** How did the Km turn out when B1 was run?
**A.** The Km was 900 ± 200 µM.
